pKd: −log10 of the molar value.
Assays:
[1] = molecular target: c-Met receptor on human tumor cells (MKN45, NCI-H820, HCC827) (human) (UniProt P08581); assay: cell-based or functional assay
[2] = molecular target: EGFR on HCC827 cells (EGFR E746-A750 deletion mutation) (human) (UniProt P00533); assay: cell-based or functional assay
[3] = molecular target: cynomolgus monkey EGFR ECD (SiNo. Biological, 90285-008B) (cynomolgus monkey); assay: SPR (BIAcore), antibody captured by anti-human IgG Fc, antigen as analyte, 1:1 Langmuir
[4] = molecular target: c-Met receptor on human tumor cells (MKN45, NCI-H820, HCC827) (human) (UniProt P08581); assay: flow cytometry on MKN45 cells, 100 nM control antibody, anti-human kappa LC-FITC (column of OA-5D5)
[5] = molecular target: c-Met receptor on human tumor cells (MKN45, NCI-H820, HCC827) (human) (UniProt P08581); assay: flow cytometry on MKN45 cells, 100 nM control antibody, anti-human kappa LC-FITC (column of hu8C4)

c-Met receptor on human tumor cells (MKN45, NCI-H820, HCC827) (human), sequence (P08581 25-1390): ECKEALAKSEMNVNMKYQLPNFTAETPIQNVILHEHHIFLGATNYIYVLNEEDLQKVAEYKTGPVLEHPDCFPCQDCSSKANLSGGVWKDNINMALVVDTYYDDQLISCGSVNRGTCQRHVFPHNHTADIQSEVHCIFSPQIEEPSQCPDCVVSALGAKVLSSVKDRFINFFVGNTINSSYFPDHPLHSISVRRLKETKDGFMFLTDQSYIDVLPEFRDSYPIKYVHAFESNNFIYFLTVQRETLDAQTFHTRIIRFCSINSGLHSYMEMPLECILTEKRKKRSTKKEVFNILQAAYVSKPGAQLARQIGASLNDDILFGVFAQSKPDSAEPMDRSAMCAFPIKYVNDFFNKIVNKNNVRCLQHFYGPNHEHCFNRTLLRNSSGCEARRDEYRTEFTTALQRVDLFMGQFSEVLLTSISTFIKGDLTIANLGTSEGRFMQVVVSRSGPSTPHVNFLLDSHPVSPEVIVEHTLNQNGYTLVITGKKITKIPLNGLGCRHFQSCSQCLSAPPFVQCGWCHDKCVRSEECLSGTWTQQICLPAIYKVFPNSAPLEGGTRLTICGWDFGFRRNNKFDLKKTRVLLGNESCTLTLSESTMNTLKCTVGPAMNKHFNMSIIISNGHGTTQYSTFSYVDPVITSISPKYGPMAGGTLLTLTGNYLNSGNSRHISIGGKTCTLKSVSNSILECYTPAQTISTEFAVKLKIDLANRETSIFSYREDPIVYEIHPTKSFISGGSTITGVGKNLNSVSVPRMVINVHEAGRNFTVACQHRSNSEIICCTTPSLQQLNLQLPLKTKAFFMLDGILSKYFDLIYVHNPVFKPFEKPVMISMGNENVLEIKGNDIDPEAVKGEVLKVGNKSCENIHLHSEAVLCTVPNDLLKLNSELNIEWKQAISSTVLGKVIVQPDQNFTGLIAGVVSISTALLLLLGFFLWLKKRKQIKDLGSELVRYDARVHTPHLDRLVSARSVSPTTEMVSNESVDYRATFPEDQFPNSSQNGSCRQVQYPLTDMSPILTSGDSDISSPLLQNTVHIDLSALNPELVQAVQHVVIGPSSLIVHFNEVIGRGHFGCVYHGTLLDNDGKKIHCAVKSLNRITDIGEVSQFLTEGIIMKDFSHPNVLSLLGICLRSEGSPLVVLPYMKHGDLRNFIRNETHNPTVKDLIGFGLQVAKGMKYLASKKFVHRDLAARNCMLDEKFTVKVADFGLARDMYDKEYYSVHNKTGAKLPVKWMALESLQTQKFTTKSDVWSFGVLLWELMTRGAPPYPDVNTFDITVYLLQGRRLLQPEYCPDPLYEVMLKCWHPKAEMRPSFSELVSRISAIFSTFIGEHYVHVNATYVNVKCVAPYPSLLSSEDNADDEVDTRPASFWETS

c-Met on the surface of HCC827 cells after 18 h with 100 nM antibody, Means (geo MFI); human IgG control 5653 [1] [geo MFI] | decrease of c-Met on the surface of HCC827 cells [1] [%] | Substance | other results
3660 | 40 | C-EM1 (EM1-MAb, Janssen; control c-Met/EGFR bispecific antibody) | EGFR on the surface of HCC827 cells after 18 h with 100 nM antibody, Means (geo MFI); human IgG control 11494 [2]: 11500 geo MFI
3270 | 40 | C-LA480 (LA480, Lilly; control c-Met antibody) | 
 |  | Vectibix (antibody) | pKd [3]: 9.68
 |  | human IgG antibody (negative control) | FITC MFI [IgG control] (FITC geo-mean (MFI)) [4]: 127; FITC MFI [IgG control] (FITC geo-mean (MFI)) [5]: 127
